These results are taken from US20160272683A1 (Novo Nordisk, published 2016).

Numbered stars: 1 amine (or outer) side, 2 acyl side, 3 side chain; on linkers, the order of the positions; unused ones are H or OH. Square brackets hold non-standard residues; d marks the D form. Side chains are listed from the residue outwards. * marks the point of attachment. C20 diacid = O=C(O)CCCCCCCCCCCCCCCCCCC(=O)*; γGlu = O=C(O)[C@H](CCC(=O)[*:2])N[*:1]

T1: human calcitonin receptor on BHK570/CRE-luc cells (human, UniProt P30988 25-474)
T1 sequence (looked up): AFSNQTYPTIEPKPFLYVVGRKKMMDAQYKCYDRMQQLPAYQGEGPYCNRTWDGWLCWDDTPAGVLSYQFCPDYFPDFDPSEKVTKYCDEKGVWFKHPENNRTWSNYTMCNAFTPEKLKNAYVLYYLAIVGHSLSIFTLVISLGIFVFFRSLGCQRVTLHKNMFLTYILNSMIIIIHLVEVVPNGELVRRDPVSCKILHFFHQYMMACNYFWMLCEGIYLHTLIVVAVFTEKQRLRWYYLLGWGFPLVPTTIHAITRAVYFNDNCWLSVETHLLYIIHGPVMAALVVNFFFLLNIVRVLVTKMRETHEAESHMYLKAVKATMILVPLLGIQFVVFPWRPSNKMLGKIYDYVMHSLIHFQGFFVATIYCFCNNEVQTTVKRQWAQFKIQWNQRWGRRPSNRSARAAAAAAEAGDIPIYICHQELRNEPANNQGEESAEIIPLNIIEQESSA

T2: human amylin 3(a) receptor (human calcitonin receptor co-expressed with RAMP-3) on BHK570/CRE-luc cells (human, UniProt P30988 25-474; O60896 24-148)
T2 sequence (looked up) 1: T1 sequence (looked up)
T2 sequence (looked up) 2: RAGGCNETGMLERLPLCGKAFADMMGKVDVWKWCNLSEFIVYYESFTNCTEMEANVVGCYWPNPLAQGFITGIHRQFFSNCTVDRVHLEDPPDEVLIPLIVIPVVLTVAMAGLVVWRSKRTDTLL

B1: [N-terminal(C20 diacid-gGlu), des1, 12H, 30S, 31G]mimylin (peptide)
peptide: {C20 diacid-γGlu}-ASELSTAALGHLSAELHELATLPRTETGSGSP-NH2
B2: [N-terminal(C20 diacid-gGlu), des1, 30S, 31G, 33G]mimylin (peptide)
peptide: {C20 diacid-γGlu}-ASELSTAALGRLSAELHELATLPRTETGSGSG-NH2
SMILES: CC(C)C[C@H](NC(=O)[C@H](C)NC(=O)[C@H](C)NC(=O)[C@@H](NC(=O)[C@H](CO)NC(=O)[C@H](CC(C)C)NC(=O)[C@H](CCC(=O)O)NC(=O)[C@H](CO)NC(=O)[C@H](C)NC(=O)CC[C@H](NC(=O)CCCCCCCCCCCCCCCCCCC(=O)O)C(=O)O)[C@@H](C)O)C(=O)NCC(=O)N[C@@H](CCCNC(=N)N)C(=O)N[C@@H](CC(C)C)C(=O)N[C@@H](CO)C(=O)N[C@@H](C)C(=O)N[C@@H](CCC(=O)O)C(=O)N[C@@H](CC(C)C)C(=O)N[C@@H](Cc1c[nH]cn1)C(=O)N[C@@H](CCC(=O)O)C(=O)N[C@@H](CC(C)C)C(=O)N[C@@H](C)C(=O)N[C@H](C(=O)N[C@@H](CC(C)C)C(=O)N1CCC[C@H]1C(=O)N[C@@H](CCCNC(=N)N)C(=O)N[C@H](C(=O)N[C@@H](CCC(=O)O)C(=O)N[C@H](C(=O)NCC(=O)N[C@@H](CO)C(=O)NCC(=O)N[C@@H](CO)C(=O)NCC(N)=O)[C@@H](C)O)[C@@H](C)O)[C@@H](C)O
B3: [N-terminal(acetyl), des1, 16K(C20 diacid-gGlu), 30S, 31G]mimylin (peptide)
peptide: Ac-ASELSTAALGRLSAK([γGlu-C20 diacid])LHELATLPRTETGSGSP-NH2
B4: [N-terminal(C20 diacid-gGlu), des1, 30S, 31G, 33A]mimylin (peptide)
peptide: {C20 diacid-γGlu}-ASELSTAALGRLSAELHELATLPRTETGSGSA-NH2
SMILES: CC(C)C[C@H](NC(=O)[C@H](C)NC(=O)[C@H](C)NC(=O)[C@@H](NC(=O)[C@H](CO)NC(=O)[C@H](CC(C)C)NC(=O)[C@H](CCC(=O)O)NC(=O)[C@H](CO)NC(=O)[C@H](C)NC(=O)CC[C@H](NC(=O)CCCCCCCCCCCCCCCCCCC(=O)O)C(=O)O)[C@@H](C)O)C(=O)NCC(=O)N[C@@H](CCCNC(=N)N)C(=O)N[C@@H](CC(C)C)C(=O)N[C@@H](CO)C(=O)N[C@@H](C)C(=O)N[C@@H](CCC(=O)O)C(=O)N[C@@H](CC(C)C)C(=O)N[C@@H](Cc1c[nH]cn1)C(=O)N[C@@H](CCC(=O)O)C(=O)N[C@@H](CC(C)C)C(=O)N[C@@H](C)C(=O)N[C@H](C(=O)N[C@@H](CC(C)C)C(=O)N1CCC[C@H]1C(=O)N[C@@H](CCCNC(=N)N)C(=O)N[C@H](C(=O)N[C@@H](CCC(=O)O)C(=O)N[C@H](C(=O)NCC(=O)N[C@@H](CO)C(=O)NCC(=O)N[C@@H](CO)C(=O)N[C@@H](C)C(N)=O)[C@@H](C)O)[C@@H](C)O)[C@@H](C)O
B5: [N-terminal(C20 diacid-gGlu), des1, 15E, 30S, 31G]mimylin (peptide)
peptide: {C20 diacid-γGlu}-ASELSTAALGRLSEELHELATLPRTETGSGSP-NH2
SMILES: CC(C)C[C@H](NC(=O)[C@H](C)NC(=O)[C@H](C)NC(=O)[C@@H](NC(=O)[C@H](CO)NC(=O)[C@H](CC(C)C)NC(=O)[C@H](CCC(=O)O)NC(=O)[C@H](CO)NC(=O)[C@H](C)NC(=O)CC[C@H](NC(=O)CCCCCCCCCCCCCCCCCCC(=O)O)C(=O)O)[C@@H](C)O)C(=O)NCC(=O)N[C@@H](CCCNC(=N)N)C(=O)N[C@@H](CC(C)C)C(=O)N[C@@H](CO)C(=O)N[C@@H](CCC(=O)O)C(=O)N[C@@H](CCC(=O)O)C(=O)N[C@@H](CC(C)C)C(=O)N[C@@H](Cc1c[nH]cn1)C(=O)N[C@@H](CCC(=O)O)C(=O)N[C@@H](CC(C)C)C(=O)N[C@@H](C)C(=O)N[C@H](C(=O)N[C@@H](CC(C)C)C(=O)N1CCC[C@H]1C(=O)N[C@@H](CCCNC(=N)N)C(=O)N[C@H](C(=O)N[C@@H](CCC(=O)O)C(=O)N[C@H](C(=O)NCC(=O)N[C@@H](CO)C(=O)NCC(=O)N[C@@H](CO)C(=O)N1CCC[C@H]1C(N)=O)[C@@H](C)O)[C@@H](C)O)[C@@H](C)O
B6: [N-terminal(acetyl), des1, 19K(C20 diacid-gGlu), 30S, 31G]mimylin (peptide)
peptide: Ac-ASELSTAALGRLSAELHK([γGlu-C20 diacid])LATLPRTETGSGSP-NH2
B7: [N-terminal(C20 diacid-gGlu), des1, 15e, 30S, 31G]mimylin (peptide)
peptide: {C20 diacid-γGlu}-ASELSTAALGRLS[dE]ELHELATLPRTETGSGSP-NH2
SMILES: CC(C)C[C@H](NC(=O)[C@H](C)NC(=O)[C@H](C)NC(=O)[C@@H](NC(=O)[C@H](CO)NC(=O)[C@H](CC(C)C)NC(=O)[C@H](CCC(=O)O)NC(=O)[C@H](CO)NC(=O)[C@H](C)NC(=O)CC[C@H](NC(=O)CCCCCCCCCCCCCCCCCCC(=O)O)C(=O)O)[C@@H](C)O)C(=O)NCC(=O)N[C@@H](CCCNC(=N)N)C(=O)N[C@@H](CC(C)C)C(=O)N[C@@H](CO)C(=O)N[C@H](CCC(=O)O)C(=O)N[C@@H](CCC(=O)O)C(=O)N[C@@H](CC(C)C)C(=O)N[C@@H](Cc1c[nH]cn1)C(=O)N[C@@H](CCC(=O)O)C(=O)N[C@@H](CC(C)C)C(=O)N[C@@H](C)C(=O)N[C@H](C(=O)N[C@@H](CC(C)C)C(=O)N1CCC[C@H]1C(=O)N[C@@H](CCCNC(=N)N)C(=O)N[C@H](C(=O)N[C@@H](CCC(=O)O)C(=O)N[C@H](C(=O)NCC(=O)N[C@@H](CO)C(=O)NCC(=O)N[C@@H](CO)C(=O)N1CCC[C@H]1C(N)=O)[C@@H](C)O)[C@@H](C)O)[C@@H](C)O
B8: [N-terminal(acetyl), des1, 4K(C20 diacid-gGlu), 30S, 31G]mimylin (peptide)
peptide: Ac-ASK([γGlu-C20 diacid])LSTAALGRLSAELHELATLPRTETGSGSP-NH2
B9: [N-terminal(C20 diacid-gGlu), des1, 30S, 31G, 33S]mimylin (peptide)
peptide: {C20 diacid-γGlu}-ASELSTAALGRLSAELHELATLPRTETGSGSS-NH2
SMILES: CC(C)C[C@H](NC(=O)[C@H](C)NC(=O)[C@H](C)NC(=O)[C@@H](NC(=O)[C@H](CO)NC(=O)[C@H](CC(C)C)NC(=O)[C@H](CCC(=O)O)NC(=O)[C@H](CO)NC(=O)[C@H](C)NC(=O)CC[C@H](NC(=O)CCCCCCCCCCCCCCCCCCC(=O)O)C(=O)O)[C@@H](C)O)C(=O)NCC(=O)N[C@@H](CCCNC(=N)N)C(=O)N[C@@H](CC(C)C)C(=O)N[C@@H](CO)C(=O)N[C@@H](C)C(=O)N[C@@H](CCC(=O)O)C(=O)N[C@@H](CC(C)C)C(=O)N[C@@H](Cc1c[nH]cn1)C(=O)N[C@@H](CCC(=O)O)C(=O)N[C@@H](CC(C)C)C(=O)N[C@@H](C)C(=O)N[C@H](C(=O)N[C@@H](CC(C)C)C(=O)N1CCC[C@H]1C(=O)N[C@@H](CCCNC(=N)N)C(=O)N[C@H](C(=O)N[C@@H](CCC(=O)O)C(=O)N[C@H](C(=O)NCC(=O)N[C@@H](CO)C(=O)NCC(=O)N[C@@H](CO)C(=O)N[C@@H](CO)C(N)=O)[C@@H](C)O)[C@@H](C)O)[C@@H](C)O
B10: [N-terminal(C20 diacid-gGlu), des1, 30S, 31G, 33L]mimylin (peptide)
peptide: {C20 diacid-γGlu}-ASELSTAALGRLSAELHELATLPRTETGSGSL-NH2
SMILES: CC(C)C[C@H](NC(=O)[C@H](CO)NC(=O)CNC(=O)[C@H](CO)NC(=O)CNC(=O)[C@@H](NC(=O)[C@H](CCC(=O)O)NC(=O)[C@@H](NC(=O)[C@H](CCCNC(=N)N)NC(=O)[C@@H]1CCCN1C(=O)[C@H](CC(C)C)NC(=O)[C@@H](NC(=O)[C@H](C)NC(=O)[C@H](CC(C)C)NC(=O)[C@H](CCC(=O)O)NC(=O)[C@H](Cc1c[nH]cn1)NC(=O)[C@H](CC(C)C)NC(=O)[C@H](CCC(=O)O)NC(=O)[C@H](C)NC(=O)[C@H](CO)NC(=O)[C@H](CC(C)C)NC(=O)[C@H](CCCNC(=N)N)NC(=O)CNC(=O)[C@H](CC(C)C)NC(=O)[C@H](C)NC(=O)[C@H](C)NC(=O)[C@@H](NC(=O)[C@H](CO)NC(=O)[C@H](CC(C)C)NC(=O)[C@H](CCC(=O)O)NC(=O)[C@H](CO)NC(=O)[C@H](C)NC(=O)CC[C@H](NC(=O)CCCCCCCCCCCCCCCCCCC(=O)O)C(=O)O)[C@@H](C)O)[C@@H](C)O)[C@@H](C)O)[C@@H](C)O)C(N)=O

For the first test, the target named is T1, human calcitonin receptor on …. The experiment in a line: cell-based or functional assay.
With B1, the “hCTR funct. EC50 (pM), tested with HSA” value turned out to be 48 pM.
With B2, the “hCTR funct. EC50 (pM), tested with HSA” value came out at 239 pM.
In the case of B3, the “hCTR funct. EC50 (pM), tested with HSA” value came out at 44 pM.
On the same count and under the same terms, as for B4, the figure is 102 pM; as for B5, 40 pM.
As to B6, the “hCTR funct. EC50 (pM), tested with HSA” value was 22 pM.
Same read-out and setting: as for B7, the figure is 23 pM.
As for B8, the “hCTR funct. EC50 (pM), tested with HSA” value amounted to 37 pM.
Still for that read-out and setting: as for B9, the figure is 154 pM; as for B10, 78 pM.

The next test addresses T2, human amylin 3(a) receptor (human …). The experiment in a line: cell-based or functional assay.
For B1, the “hAmylin-R funct. EC50 (pM), tested with HSA” value (“hAmylin-R funct. EC50 (pM)” for short) was found to be 230 pM.
Regarding B2, the “hAmylin-R funct. EC50 (pM)” value was determined as 435 pM.
Same read-out and setting: as for B3, the figure is 100 pM; as for B4, 265 pM; as for B5, 85 pM.
On the same count and under the same terms, as for B6, the figure is 47 pM; as for B7, 94 pM; as for B8, 72 pM.
Still for that read-out and setting: the result for B9 reads 328 pM.
B10: the “hAmylin-R funct. EC50 (pM)” value was 168 pM.
